US20260184775A1 (Chugai, published 2026)
Blank lines part the entries; values can stand above or below the binder they belong to.

Experiments:
[1] = target: T1, recombinant human latent TGF-beta 1 (Flag-tagged human latent TGF-beta 1) (human, UniProt P01137 34-390); test: SPR, Biacore T200, 37 C, pH 7.4; antibody captured by anti-human Fc, latent TGF-beta 1 at 12.5 to 200 nM as analyte; 1:1 model
T1 construct: Latent form: LAP plus mature TGF-beta 1; also called human recombinant latent TGF-beta 1; SLC
Experimental: (§1) The affinities of anti-latent TGF-beta 1 antibodies binding to human or mouse latent TGF-beta 1 at pH 7.4 were determined at 37 degrees C. using Biacore T200 instrument (GE Healthcare). Anti-human Fc (GE Healthcare) was immobilized onto all flow cells of a CM4 sensor chip using an amine coupling kit (GE Healthcare). All antibodies and analytes were prepared in ACES pH 7.4 containing 20 mM ACES, 150 mM NaCl, 1.2 mM CaCl₂), 0.05% Tween 20, 0.005% NaN3. Each antibody was captured onto the sensor surface by anti-human Fc. Antibody capture levels were aimed at 300 resonance unit (RU). For TBA865 and TBA873, recombinant human or mouse latent TGF-beta 1 was injected at 12.5 to 200 nM prepared by two-fold serial dilution, followed by dissociation. For TBS139 and TBS182, recombinant human or mouse latent TGF-beta 1 was injected at 3.125 to 50 nM prepared by two-fold serial dilution, followed by dissociation. The sensor surface was regenerated each cycle with 3M MgCl2.

[2] = target: T2, recombinant mouse latent TGF-beta 1 (Flag-tagged mouse latent TGF-beta 1) (mouse, UniProt P04202 34-390); test: as above
T2 construct: also called mouse recombinant latent TGF-beta 1
Experimental: as §1

[3] = target: T3, mouse cell surface latent TGF-beta 1 (mouse, UniProt P04202 30-390); test: FACS on Ba/F3 cells, PE-labelled secondary antibody, MFI
T3 construct: Endogenous latent TGF-beta 1 (forming LLC) on Ba/F3 cells, and the latent TGF-beta 1 of mouse PBMC in the co-culture assay; also called cell surface mouse latent TGF-beta 1; latent TGF-beta 1 on Ba/F3 cells
Experimental: (§2) Anti-latent TGF-beta 1 antibodies were incubated with each cell line for 30 minutes at 4 degrees C. and washed with FACS buffer (2% FBS, 2 mM EDTA in PBS). Anti-KLH antibody (IC17) was used for a negative control antibody. Goat F(ab′)2 anti-Human IgG, Mouse ads-PE (Southern Biotech, Cat. 2043-09) or Goat F(ab′)2 anti-Mouse IgG(H+L), Human Ads-PE (Southern Biotech, Cat. 1032-09) was then added and incubated for 30 minutes at 4 degrees C. and washed with FACS buffer. Data acquisition was performed on an FACS Verse (Becton Dickinson), followed by analysis using FlowJo software (Tree Star) and GraphPad Prism software (GraphPad).

[4] = target: T4, human cell surface latent TGF-beta 1 (human, UniProt P01137 30-390); test: FACS on FreeStyle 293-F cells, PE-labelled secondary antibody, MFI
T4 construct: also called cell surface human latent TGF-beta 1
Experimental: as §2

[5] = target: T2, recombinant mouse latent TGF-beta 1 …; test: SPR, Biacore 8K, 37 C, pH 7.4; antibody captured by anti-human Fc, latent TGF-beta 1 as analyte; 1:1 model
[6] = target: T5, mouse mature TGF-beta 1 (mouse, UniProt P04202 279-390); test: ELISA on plate-coated mouse mature TGF-beta 1, detection with anti-human IgG-HRP
T5 construct: mature; also the active TGF-beta 1 released in the mouse PBMC co-culture assay
Experimental: 384-well plate was coated with mouse mature TGF-beta 1 for overnight at 4 degrees C. After four times washing with TBS-T, the plate was blocked with blocking buffer (1×TBS/tween20+0.5% BSA+1× Block ace) for 2 hours at room temperature. After four times washing with TBS-T, antibody solution was added into the plate and incubated for 2 hours at room temperature. After four times washing with TBS-T, a diluted secondary antibody (goat anti-human IgG-HRP Santa Cruz Cat.sc-2453) was add into the plate and incubated for 1 hour at room temperature. After four times washing with TBS-T, TMB solution was added into the plate and incubated for 15 min at room temperature, then 1N sulfuric acid was added to stop the reaction. The absorbance was measured at 450 nm/570 nm.

[7] = target: T1, recombinant human latent TGF-beta 1 …; test: SPR, Biacore 8K, 37 C, pH 7.4; antibody captured by anti-human Fc, latent TGF-beta 1 as analyte; 1:1 model
[8] = target: T1, recombinant human latent TGF-beta 1 …; test: SPR, Biacore T200, 37 C, pH 7.4; antibody captured by anti-human Fc, latent TGF-beta 1 at 12.5 to 200 nM as analyte; 1:1 model; remark: listed apart in the source
Experimental: (§3) The affinities of anti-latent TGF-beta 1 antibodies binding to human latent TGF-beta 1 at pH 7.4 were determined at 37 degrees C. using Biacore T200 instrument (GE Healthcare). Anti-human Fc (GE Healthcare) was immobilized onto all flow cells of a CM4 sensor chip using an amine coupling kit (GE Healthcare). All antibodies and analytes were prepared in ACES pH 7.4 containing 20 mM ACES, 150 mM NaCl, 1.2 mM CaCl₂, 0.05% Tween 20, and 0.005% NaN₃. Each antibody was captured onto the sensor surface by anti-human Fc. Antibody capture levels were aimed at 300 resonance unit (RU). Recombinant human latent TGF-beta 1 was injected at a concentration of 12.5 to 200 nM prepared by two-fold serial dilution, followed by dissociation. Sensor surface was regenerated each cycle with 3M MgCl₂.

[9] = target: T2, recombinant mouse latent TGF-beta 1 …; test: SPR, Biacore T200, 37 C, pH 7.4; antibody captured by anti-human Fc, latent TGF-beta 1 at 3.125 to 50 nM as analyte; 1:1 model
Experimental: as §1

[10] = target: T1, recombinant human latent TGF-beta 1 …; test: SPR, Biacore T200, 37 C, pH 7.4; antibody captured by anti-human Fc, latent TGF-beta 1 injected at 3.125 to 50 nM
Experimental: as §1

[11] = target: T1, recombinant human latent TGF-beta 1 …; test: SPR, Biacore T200, 37 C, pH 7.4; antibody captured by anti-human Fc; 1:1 model; footnote: slow off rate <1E-05, KD cannot be uniquely determined
Experimental: as §3

T5 sequence (P04202 279-390 limits assumed): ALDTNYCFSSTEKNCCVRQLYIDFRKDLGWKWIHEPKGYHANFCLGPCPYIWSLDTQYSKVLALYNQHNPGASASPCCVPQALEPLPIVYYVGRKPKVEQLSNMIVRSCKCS
T2 sequence (P04202 other isoform, or with tags, fused parts or gaps limits assumed): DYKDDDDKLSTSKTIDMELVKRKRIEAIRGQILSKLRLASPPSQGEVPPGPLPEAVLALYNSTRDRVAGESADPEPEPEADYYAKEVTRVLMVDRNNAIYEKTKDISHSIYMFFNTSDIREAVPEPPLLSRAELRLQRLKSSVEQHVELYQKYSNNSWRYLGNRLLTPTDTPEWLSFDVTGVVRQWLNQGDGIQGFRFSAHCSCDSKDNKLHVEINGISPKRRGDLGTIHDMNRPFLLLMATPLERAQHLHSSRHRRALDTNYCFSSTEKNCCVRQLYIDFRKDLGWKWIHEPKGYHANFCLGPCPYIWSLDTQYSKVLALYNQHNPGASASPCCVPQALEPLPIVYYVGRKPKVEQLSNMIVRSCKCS
T1 sequence (P01137 other isoform, or with tags, fused parts or gaps limits assumed): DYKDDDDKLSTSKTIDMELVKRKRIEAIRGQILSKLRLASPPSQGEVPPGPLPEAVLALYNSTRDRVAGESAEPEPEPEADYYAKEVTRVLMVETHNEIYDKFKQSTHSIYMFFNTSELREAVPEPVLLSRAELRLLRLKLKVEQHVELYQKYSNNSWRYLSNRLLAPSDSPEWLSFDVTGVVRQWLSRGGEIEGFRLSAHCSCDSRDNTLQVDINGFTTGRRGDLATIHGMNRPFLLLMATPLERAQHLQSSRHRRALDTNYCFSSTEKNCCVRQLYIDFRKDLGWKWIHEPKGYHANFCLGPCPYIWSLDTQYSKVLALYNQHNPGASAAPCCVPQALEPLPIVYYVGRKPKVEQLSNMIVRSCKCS
T4 sequence (P01137 30-390): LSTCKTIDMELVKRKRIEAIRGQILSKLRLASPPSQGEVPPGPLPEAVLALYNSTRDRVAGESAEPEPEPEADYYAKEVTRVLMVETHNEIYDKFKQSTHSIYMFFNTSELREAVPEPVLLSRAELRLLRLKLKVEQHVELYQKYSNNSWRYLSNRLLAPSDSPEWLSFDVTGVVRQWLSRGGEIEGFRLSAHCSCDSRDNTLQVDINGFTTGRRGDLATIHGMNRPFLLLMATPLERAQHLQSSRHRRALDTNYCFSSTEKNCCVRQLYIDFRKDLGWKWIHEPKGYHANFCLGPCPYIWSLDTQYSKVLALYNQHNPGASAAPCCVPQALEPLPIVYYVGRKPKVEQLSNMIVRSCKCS
T3 sequence (P04202 30-390): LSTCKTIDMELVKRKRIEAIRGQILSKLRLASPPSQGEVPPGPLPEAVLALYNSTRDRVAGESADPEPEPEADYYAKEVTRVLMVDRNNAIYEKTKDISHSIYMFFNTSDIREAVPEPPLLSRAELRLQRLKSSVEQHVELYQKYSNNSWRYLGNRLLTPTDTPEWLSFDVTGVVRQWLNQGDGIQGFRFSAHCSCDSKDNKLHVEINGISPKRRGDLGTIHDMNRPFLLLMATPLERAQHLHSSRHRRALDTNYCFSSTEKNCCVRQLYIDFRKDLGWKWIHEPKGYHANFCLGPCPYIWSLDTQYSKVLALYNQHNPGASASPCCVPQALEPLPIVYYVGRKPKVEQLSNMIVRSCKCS

B1: TBA865 (antibody, human IgG1, kappa, V domains shown)
VH: QSLEESGGRLVTPGGSLTLTCTVSGIDLSSYAMGWVRQAPGKGLEYIGIISSSGLTDYASWVNGRFTISKTSTTVDLKITSPTTEDTATYFCARIYDLWGPGTLVTVSS
VL: DIVMTQTPASVEAAVGGTLTIKCQASQSISDQLSWYQQKPGQPPKLLIYRASTLESGVPSRFKGSGSGTQFTLTISDLECADAATYYCQSYYYSYSSTYGNTFGGGTKVEIKR
- Kd [1]: 0.16 nM
- koff [1]: 6.55e-05 s⁻¹
- kon [1]: 410000 M⁻¹ s⁻¹
- Kd [2]: 0.158 nM
- koff [2]: 5.37e-05 s⁻¹
- kon [2]: 341000 M⁻¹ s⁻¹
- binding result [3]: no binding
- binding result [4]: no binding

B2: TBA873 (antibody, human IgG1, kappa, V domains shown)
VH: QSLEESGGRLVTPGGSLTLTCTVSGIDLSSYAMGWVRQAPGKGLEYIGIISNSGLTDYASWVNGRFTISKTSTTVDLKITSLTTEDTATYFCARIYDLWGPGTLVTVSS
VL: DIVMTQTPASVEAAVGGTVTIKCQASQSISNQLSWYQQKPGQPPKLLIYRASTLASGVSSRFKGSGSGTQFTLTISDLECAAAATYYCQSYYYSVSSTYGNTFGGGTKVEIKR
- Kd [1]: 0.292 nM
- koff [1]: 6.72e-05 s⁻¹
- kon [1]: 230000 M⁻¹ s⁻¹
- Kd [2]: 0.276 nM
- koff [2]: 5.15e-05 s⁻¹
- kon [2]: 187000 M⁻¹ s⁻¹
- binding result [3]: no binding
- binding result [4]: no binding

B3: TBA0946 (antibody, human IgG1, kappa, V domains shown)
VH: QSLEESGGRLVTPGTPLTLTCTTSGFSLNNYYMNWVRQAPGKGLEWIGLTDNDGTTYYANWAKGRFTVSKTSTTVDLKMTSPTTEDTATYFCVRDAGYSRNLWGPGTLVTVSS
VL: AYDMTQTPASVEVAVGGTVTIKCQASQSISSSLAWYQQKPGQPPKQLIYRASTLASGVSSRFKGSGSGTQFTLTISGVECADAATYYCQQTYSWSGLDNVFGGGTKVEIKR
notes: also called TBA0946bb-F1332m; TBA946
- Kd [5]: 0.0793 nM
- koff [5]: 7.66e-05 s⁻¹
- kon [5]: 966000 M⁻¹ s⁻¹
- binding result [6]: no binding (tested: 10 µg/mL)

B4: TBA1172 (antibody, human IgG1, kappa, V domains shown)
VH: QSVEESGGRLVTPGTPLTLTCTVSGFSLSNYAMGWVRQAPGKGLEWIGIISSGGVSYYASWARGRFTISKTSTTVDLKITSPTPEDTGTYFCARGQVPSSDTYYVPFNLWGPGTLVTVSS
VL: DIAMTQTPASVEAAVGGTVTIKCQASQSIGSDLAWYQQKPGQPPKLLIYRASTLASGVPLRFKGSGSGTQFTLTISDLECADAATYYCQTYYFTISSYGAFGGGTKVEIKR
notes: also called TBA1172aa-F1332m; TBS1172
- Kd [7]: 88 nM
- koff [7]: 0.0229 s⁻¹
- kon [7]: 261000 M⁻¹ s⁻¹
- Kd [5]: 0.0919 nM
- koff [5]: 9.13e-05 s⁻¹
- kon [5]: 994000 M⁻¹ s⁻¹
- binding result [6]: no binding (tested: 10 µg/mL)

B5: TBA0947 (antibody, human IgG1, kappa, V domains shown)
VH: QSVEESGGRLVTPGTPLTLTCTVSGFSLSSYAMNWVRQAPGKGLEWIGYIYTSGTTYHANWARGRFTISKTSTTVDLKMTSLTTEDTATYFCARGTGISDYYYWVMDLWGPGTLVTVSS
VL: AFELTQTPSSVEAAVGGTVTIKCQASQSISTYLAWYQQRPGQPPKLLIYKASTLASGVPSRFKGSGSGTDFTLTISDLECADAATYFCQSYCDGDSVGFGGGTKVEIKR
notes: also called TBA0947gg-F1332m; TBA947
- Kd [7]: 7.65 nM
- koff [7]: 0.00224 s⁻¹
- kon [7]: 292000 M⁻¹ s⁻¹
- Kd [5]: 0.0419 nM
- koff [5]: 1.07e-05 s⁻¹
- kon [5]: 256000 M⁻¹ s⁻¹
- binding result [6]: no binding (tested: 10 µg/mL)

B6: TBA1277 (antibody, human IgG1, kappa, V domains shown)
VH: QSVEESGGRLVTPGTPLTLTCTASGFSLSNYDMSWVRQAPGKGLEWIGNIHTADTTSYARWAKGRFTISKTSTTVDLKITSPTSEDTATYFCARGGSDFFYYEPYNIWGPGTLVTVSS
VL: AYDMTQTPASVEAAVGGTVTVRCQASESIGSRLAWYQQKVGQPPKLLIYDASTLASGVSSRFKGSGSGTEFTLTISDLECDDAATYYCQQYYTSNNVENTFGGGTKVEIKR
notes: also called TBA1277cc-F1332m
- Kd [8]: 0.0188 nM
- koff [8]: 1.63e-05 s⁻¹
- kon [8]: 867000 M⁻¹ s⁻¹

Continued, values first:

- Kd [9]: 0.0225 nM
- koff [9]: 3.96e-05 s⁻¹
- kon [9]: 1.76e+06 M⁻¹ s⁻¹
- binding result [10]: no binding (tested: 50 nM)
B7: TBS139 (antibody, mouse IgG1, kappa, V domains shown)
VH: QSLEESGGDLVKPGASLTLTCTASGFSFSSYWMSWVRQAPGKGLEYIGMISIIGTTYYASWAKGRFTISKTSSTTVTLQVTSLTAADTATYFCARGYVSNSNYWGLWGPGTLVTVSS
VL: AYDMTQTPASVEVAVGGTVTIKCQASQNIGSNLAWYQQKPGQPPKLLIYYASDLASGVPSRFKGSGSGTRYTLTISGVQCDDAATYYCQQYWSSSNVDNTFGGGTEVVVKR

- kon [8]: 402000 M⁻¹ s⁻¹
- Kd [11]: ≤ 0.00738 nM
- koff [11]: < 1e-05 s⁻¹
B8: TBA1314 (antibody, human IgG1, kappa, V domains shown)
VH: QSVEESGGRLVTPGTPLTLTCTVSGFSLSNYAMTWVRQAPGKGLEWIGVIYAGGNTYYANWVNGRFTISKTSTTVDLKITSPTTEDTATYFCARDVGSSSSGVYFNIWGPGTLVTVSS
VL: AYDMTQTPASVEVAVGGTVTIKCQASQSIGSRLAWYQQKPGQPPKLLIYDASTLASGVSSRFKGSGSGTEFTLTISGVECADAATYYCQQDYSYRHVDNIFGGGTKVEIKR
notes: also called TBA1314aa-F1332m

- Kd [8]: 0.0389 nM
- koff [8]: 2.31e-05 s⁻¹
- kon [8]: 593000 M⁻¹ s⁻¹
B9: TBA1300 (antibody, human IgG1, kappa, V domains shown)
VH: QEQLKESGGGLVTPGGTLTLTCTVSGFSLSNYDMSWVRQAPGKGLEWIGAIYTAGTTSYASWAKGRFTISKTSTTVDLKITSPTTEDTATYFCARGGSSFFYYAAHNIWGPGTLVTVSS
VL: AYDMTQTPASVEAAVGGTVTIKCQASQSIGSNLAWYQQKPGQPPKLLIYDASKLPSGVPSRFKGSGSGTEFTLTISDLECDDAATYYCQQYYTTSDVDNTFGGGTKVEIKR
notes: also called TBA1300ff-F1332m
